B1: GOLPH3 (parent)
chain: FAPLLDEQYDLATKRVRQLLDLDP

Variants of: B1
Test: protein stability index of a GFP-peptide fusion (GPS, HEK-293T) (PSI 1-6); higher = more stable
Details: c terminus: a fixed tail appended
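Further: lentivirally expressed fusions sorted by FACS into six bins by GFP to DsRed ratio, PSI derived from sequencing read proportions per bin multiplied by bin number.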

Variant	protein stability index
FAPLLDAQYDLATKRVRQLLDLDP [E7A]	1.49
FAPLLDVQYDLATKRVRQLLDLDP [E7V]	1.89
FAPLLDNQYDLATKRVRQLLDLDP [E7N]	1.91
FAPLLDIQYDLATKRVRQLLDLDP [E7I]	1.65
FAPLLDRQYDLATKRVRQLLDLDP [E7R]	2.79
FAPLLDLQYDLATKRVRQLLDLDP [E7L]	1.55
FAPLLDQQYDLATKRVRQLLDLDP [E7Q]	2.66
FAPLLDFQYDLATKRVRQLLDLDP [E7F]	1.91
FAPLLDCQYDLATKRVRQLLDLDP [E7C]	1.98
FAPLLDTQYDLATKRVRQLLDLDP [E7T]	1.86
FAPLLDMQYDLATKRVRQLLDLDP [E7M]	1.9
FAPLLDPQYDLATKRVRQLLDLDP [E7P]	2.12
FAPLLDDQYDLATKRVRQLLDLDP [E7D]	2.02
FAPLLDHQYDLATKRVRQLLDLDP [E7H]	1.76
FAPLLDGQYDLATKRVRQLLDLDP [E7G]	1.86
FAPLLDYQYDLATKRVRQLLDLDP [E7Y]	1.48
FAPLLDKQYDLATKRVRQLLDLDP [E7K]	1.87
FAPLLDWQYDLATKRVRQLLDLDP [E7W]	2.56
FAPLLDSQYDLATKRVRQLLDLDP [E7S]	2.12
FAPGLDEQYDLATKRVRQLLDLDP [L4G]	2.27
FAPRLDEQYDLATKRVRQLLDLDP [L4R]	1.43
FAPYLDEQYDLATKRVRQLLDLDP [L4Y]	2.65
FAPVLDEQYDLATKRVRQLLDLDP [L4V]	3.17
FAPTLDEQYDLATKRVRQLLDLDP [L4T]	1.72

Variant	protein stability index
FAPPLDEQYDLATKRVRQLLDLDP [L4P]	2.35
FAPDLDEQYDLATKRVRQLLDLDP [L4D]	3.39
FAPQLDEQYDLATKRVRQLLDLDP [L4Q]	2.12
FAPALDEQYDLATKRVRQLLDLDP [L4A]	1.81
FAPELDEQYDLATKRVRQLLDLDP [L4E]	2.79
FAPMLDEQYDLATKRVRQLLDLDP [L4M]	1.76
FAPSLDEQYDLATKRVRQLLDLDP [L4S]	1.75
FAPKLDEQYDLATKRVRQLLDLDP [L4K]	2.34
FAPHLDEQYDLATKRVRQLLDLDP [L4H]	2.31
FAPWLDEQYDLATKRVRQLLDLDP [L4W]	2.28
FAPFLDEQYDLATKRVRQLLDLDP [L4F]	2.01
FAPILDEQYDLATKRVRQLLDLDP [L4I]	2.33
FAPCLDEQYDLATKRVRQLLDLDP [L4C]	1.67
FAPNLDEQYDLATKRVRQLLDLDP [L4N]	3.2
FTPLLDEQYDLATKRVRQLLDLDP [A2T]	2.71
FPPLLDEQYDLATKRVRQLLDLDP [A2P]	3.45
FCPLLDEQYDLATKRVRQLLDLDP [A2C]	1.85
FQPLLDEQYDLATKRVRQLLDLDP [A2Q]	3.37
FLPLLDEQYDLATKRVRQLLDLDP [A2L]	2.2
FYPLLDEQYDLATKRVRQLLDLDP [A2Y]	2.43
FMPLLDEQYDLATKRVRQLLDLDP [A2M]	2.03
FFPLLDEQYDLATKRVRQLLDLDP [A2F]	2.03
FHPLLDEQYDLATKRVRQLLDLDP [A2H]	2.48
FGPLLDEQYDLATKRVRQLLDLDP [A2G]	3.19

Variant	protein stability index
FSPLLDEQYDLATKRVRQLLDLDP [A2S]	3.46
FEPLLDEQYDLATKRVRQLLDLDP [A2E]	3.13
FIPLLDEQYDLATKRVRQLLDLDP [A2I]	1.75
FKPLLDEQYDLATKRVRQLLDLDP [A2K]	3.14
FNPLLDEQYDLATKRVRQLLDLDP [A2N]	3.01
FVPLLDEQYDLATKRVRQLLDLDP [A2V]	2.11
FWPLLDEQYDLATKRVRQLLDLDP [A2W]	1.92
FDPLLDEQYDLATKRVRQLLDLDP [A2D]	3.71
FAVLLDEQYDLATKRVRQLLDLDP [P3V]	2.38
FADLLDEQYDLATKRVRQLLDLDP [P3D]	2.79
FAYLLDEQYDLATKRVRQLLDLDP [P3Y]	2.28
FASLLDEQYDLATKRVRQLLDLDP [P3S]	2.34
FAWLLDEQYDLATKRVRQLLDLDP [P3W]	2.16
FAMLLDEQYDLATKRVRQLLDLDP [P3M]	1.78
FAFLLDEQYDLATKRVRQLLDLDP [P3F]	1.52
FAHLLDEQYDLATKRVRQLLDLDP [P3H]	3.07
FAQLLDEQYDLATKRVRQLLDLDP [P3Q]	2.05
FANLLDEQYDLATKRVRQLLDLDP [P3N]	3.18
FAELLDEQYDLATKRVRQLLDLDP [P3E]	3.18
FAALLDEQYDLATKRVRQLLDLDP [P3A]	2.34
FATLLDEQYDLATKRVRQLLDLDP [P3T]	2.88
FARLLDEQYDLATKRVRQLLDLDP [P3R]	1.87
FAGLLDEQYDLATKRVRQLLDLDP [P3G]	2.59
FAILLDEQYDLATKRVRQLLDLDP [P3I]	1.68

Variant	protein stability index
FAKLLDEQYDLATKRVRQLLDLDP [P3K]	2.44
FALLLDEQYDLATKRVRQLLDLDP [P3L]	1.6
FACLLDEQYDLATKRVRQLLDLDP [P3C]	2.44
FAPLLDEGYDLATKRVRQLLDLDP [Q8G]	2.08
FAPLLDEEYDLATKRVRQLLDLDP [Q8E]	2.64
FAPLLDENYDLATKRVRQLLDLDP [Q8N]	1.84
FAPLLDEPYDLATKRVRQLLDLDP [Q8P]	1.74
FAPLLDEHYDLATKRVRQLLDLDP [Q8H]	2.04
FAPLLDEYYDLATKRVRQLLDLDP [Q8Y]	2.33
FAPLLDEWYDLATKRVRQLLDLDP [Q8W]	1.32
FAPLLDEDYDLATKRVRQLLDLDP [Q8D]	2.96
FAPLLDEKYDLATKRVRQLLDLDP [Q8K]	1.75
FAPLLDESYDLATKRVRQLLDLDP [Q8S]	2.24
FAPLLDEAYDLATKRVRQLLDLDP [Q8A]	2.29
FAPLLDETYDLATKRVRQLLDLDP [Q8T]	2.64
FAPLLDECYDLATKRVRQLLDLDP [Q8C]	2.1
FAPLLDEMYDLATKRVRQLLDLDP [Q8M]	1.88
FAPLLDELYDLATKRVRQLLDLDP [Q8L]	1.95
FAPLLDERYDLATKRVRQLLDLDP [Q8R]	1.39
FAPLLDEFYDLATKRVRQLLDLDP [Q8F]	1.5
FAPLLDEQMDLATKRVRQLLDLDP [Y9M]	2.46
FAPLLDEQLDLATKRVRQLLDLDP [Y9L]	2.15
FAPLLDEQWDLATKRVRQLLDLDP [Y9W]	2.06
FAPLLDEQGDLATKRVRQLLDLDP [Y9G]	2.24

Variant	protein stability index
FAPLLDEQRDLATKRVRQLLDLDP [Y9R]	2.2
FAPLLDEQTDLATKRVRQLLDLDP [Y9T]	2.45
FAPLLDEQADLATKRVRQLLDLDP [Y9A]	2.9
FAPLLDEQPDLATKRVRQLLDLDP [Y9P]	2.59
FAPLLDEQDDLATKRVRQLLDLDP [Y9D]	2.98
FAPLLDEQNDLATKRVRQLLDLDP [Y9N]	2.57
FAPLLDEQQDLATKRVRQLLDLDP [Y9Q]	2.64
FAPLLDEQIDLATKRVRQLLDLDP [Y9I]	2.26
FAPLLDEQKDLATKRVRQLLDLDP [Y9K]	2.4
FAPLLDEQFDLATKRVRQLLDLDP [Y9F]	2.75
FAPLLDEQCDLATKRVRQLLDLDP [Y9C]	2.9
FAPLLDEQHDLATKRVRQLLDLDP [Y9H]	2.49
FAPLLDEQEDLATKRVRQLLDLDP [Y9E]	3.5
FAPLLDEQSDLATKRVRQLLDLDP [Y9S]	2.96
FAPLLDEQVDLATKRVRQLLDLDP [Y9V]	1.24
FAPLLDEQYDEATKRVRQLLDLDP [L11E]	3.48
FAPLLDEQYDFATKRVRQLLDLDP [L11F]	1.94
FAPLLDEQYDDATKRVRQLLDLDP [L11D]	3.09
FAPLLDEQYDAATKRVRQLLDLDP [L11A]	3.3
FAPLLDEQYDCATKRVRQLLDLDP [L11C]	2.26
FAPLLAEQYDLATKRVRQLLDLDP [D6A]	2.38
FAPLLQEQYDLATKRVRQLLDLDP [D6Q]	1.42
FAPLLNEQYDLATKRVRQLLDLDP [D6N]	1.54
FAPLLVEQYDLATKRVRQLLDLDP [D6V]	1.75

Variant	protein stability index
FAPLLFEQYDLATKRVRQLLDLDP [D6F]	1.49
FAPLLMEQYDLATKRVRQLLDLDP [D6M]	2.25
FAPLLPEQYDLATKRVRQLLDLDP [D6P]	2.81
FAPLLLEQYDLATKRVRQLLDLDP [D6L]	1.83
FAPLLYEQYDLATKRVRQLLDLDP [D6Y]	2.03
FAPLLGEQYDLATKRVRQLLDLDP [D6G]	1.45
FAPLLSEQYDLATKRVRQLLDLDP [D6S]	2.26
FAPLLHEQYDLATKRVRQLLDLDP [D6H]	1.48
FAPLLIEQYDLATKRVRQLLDLDP [D6I]	1.46
FAPLLWEQYDLATKRVRQLLDLDP [D6W]	1.88
FAPLLTEQYDLATKRVRQLLDLDP [D6T]	1.76
FAPLLKEQYDLATKRVRQLLDLDP [D6K]	2.4
FAPLLEEQYDLATKRVRQLLDLDP [D6E]	2.22
FAPLLCEQYDLATKRVRQLLDLDP [D6C]	2.25
FAPLLDEQYELATKRVRQLLDLDP [D10E]	2.36
FAPLLDEQYFLATKRVRQLLDLDP [D10F]	2.69
FAPLLDEQYGLATKRVRQLLDLDP [D10G]	2.15
FAPLLDEQYTLATKRVRQLLDLDP [D10T]	1.56
FAPLLDEQYWLATKRVRQLLDLDP [D10W]	3.11
FAPLLDEQYQLATKRVRQLLDLDP [D10Q]	1.46
FAPLLDEQYVLATKRVRQLLDLDP [D10V]	1.27
FAPLLDEQYHLATKRVRQLLDLDP [D10H]	1.58
FAPLLDEQYSLATKRVRQLLDLDP [D10S]	2.03
FAPLLDEQYMLATKRVRQLLDLDP [D10M]	2.24

Variant	protein stability index
FAPLLDEQYNLATKRVRQLLDLDP [D10N]	1.59
FAPLLDEQYILATKRVRQLLDLDP [D10I]	1.88
FAPLLDEQYLLATKRVRQLLDLDP [D10L]	1.72
FAPLLDEQYKLATKRVRQLLDLDP [D10K]	1.98
FAPLLDEQYPLATKRVRQLLDLDP [D10P]	2.4
FAPLLDEQYYLATKRVRQLLDLDP [D10Y]	1.63
FAPLLDEQYRLATKRVRQLLDLDP [D10R]	2.23
FAPLLDEQYCLATKRVRQLLDLDP [D10C]	2.54
FAPLFDEQYDLATKRVRQLLDLDP [L5F]	2.6
FAPLGDEQYDLATKRVRQLLDLDP [L5G]	2.24
FAPLEDEQYDLATKRVRQLLDLDP [L5E]	3.7
FAPLPDEQYDLATKRVRQLLDLDP [L5P]	2.21
FAPLVDEQYDLATKRVRQLLDLDP [L5V]	2.21
FAPLCDEQYDLATKRVRQLLDLDP [L5C]	1.82
FAPLKDEQYDLATKRVRQLLDLDP [L5K]	2.39
FAPLDDEQYDLATKRVRQLLDLDP [L5D]	3.74
FAPLIDEQYDLATKRVRQLLDLDP [L5I]	1.78
FAPLSDEQYDLATKRVRQLLDLDP [L5S]	1.85
FAPLHDEQYDLATKRVRQLLDLDP [L5H]	2.42
FAPLMDEQYDLATKRVRQLLDLDP [L5M]	2.38
FAPLADEQYDLATKRVRQLLDLDP [L5A]	2.34
FAPLYDEQYDLATKRVRQLLDLDP [L5Y]	2.45
FAPLQDEQYDLATKRVRQLLDLDP [L5Q]	2.45
FAPLWDEQYDLATKRVRQLLDLDP [L5W]	2.07

Variant	protein stability index
FAPLTDEQYDLATKRVRQLLDLDP [L5T]	1.95
FAPLNDEQYDLATKRVRQLLDLDP [L5N]	2.97
FAPLRDEQYDLATKRVRQLLDLDP [L5R]	1.18
LAPLLDEQYDLATKRVRQLLDLDP [F1L]	3.67
PAPLLDEQYDLATKRVRQLLDLDP [F1P]	4.59
KAPLLDEQYDLATKRVRQLLDLDP [F1K]	3.61
DAPLLDEQYDLATKRVRQLLDLDP [F1D]	4.39
IAPLLDEQYDLATKRVRQLLDLDP [F1I]	3.11
EAPLLDEQYDLATKRVRQLLDLDP [F1E]	4.59
TAPLLDEQYDLATKRVRQLLDLDP [F1T]	4.11
CAPLLDEQYDLATKRVRQLLDLDP [F1C]	2.5
NAPLLDEQYDLATKRVRQLLDLDP [F1N]	3.86
YAPLLDEQYDLATKRVRQLLDLDP [F1Y]	2.39
SAPLLDEQYDLATKRVRQLLDLDP [F1S]	4.39
HAPLLDEQYDLATKRVRQLLDLDP [F1H]	4
MAPLLDEQYDLATKRVRQLLDLDP [F1M]	3.58
GAPLLDEQYDLATKRVRQLLDLDP [F1G]	4.41
VAPLLDEQYDLATKRVRQLLDLDP [F1V]	3.06
WAPLLDEQYDLATKRVRQLLDLDP [F1W]	2.46
QAPLLDEQYDLATKRVRQLLDLDP [F1Q]	4.03
